Experimental data: US20260049138A1 (Chugai, published 2026)
Numbering of substitutions follows the chain as printed. Names may count otherwise. Values belong to the binder of their own block, whether it stands above or below them.

Target: T1, CD3ε homodimer protein (human, UniProt P07766 23-126, limits assumed)
T1 construct: also called CD3 (CD3ε)
Experiment: SPR Biacore T200, CD3ε homodimer on chip;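 note: Light-chain single-residue variant antibodies injected over amine-coupled CD3ε homodimer on a CM4 chip at 25 °C, bound amount divided by that of the GLS3000-containing antibody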

T1 sequence (P07766 23-126 limits assumed): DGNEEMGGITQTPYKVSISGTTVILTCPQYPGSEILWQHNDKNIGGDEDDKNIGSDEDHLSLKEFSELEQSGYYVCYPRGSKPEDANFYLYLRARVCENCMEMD

B1: GLS3000 H27dE one-arm antibody (antibody, human IgG1, kappa, L234A L235A, N297A, name in Kabat numbering)
heavy: QVQLVESGGGVVQPGRSLRLSCAASGFTFSNAWMHWVRQAPGKGLEWVAQIKAKSNNYATYYAESVKGRFTISRDDSKNSLYLQMNSLKTEDTAVYYCRYVHYGAYYGVDAWGQGTTVTVSSASTKGPSVFPLAPSSKSTSGGTAALGCLVKDYFPEPVTVSWNSGALTSGVHTFPAVLQSSGLYSLSSVVTVPSSSLGTQTYICNVNHKPSNTKVDKKVEPKSCDKTHTCPPCPAPEAAGGPSVFLFPPKPKDTLMISRTPEVTCVVVDVSHEDPEVKFNWYVDGVEVHNAKTKPREEQYASTYRVVSVLTVLHQDWLNGKEYKCKVSNKALPAPIEKTISKAKGQPREPQVYTLPPSRCELTKNQVSLSCAVKGFYPSDIAVEWESNGQPENNYKTTPPVLDSDGSFFLVSKLTVDKSRWQQGNVFSCSVMHEALHNHYTQKSLSLSPDYKDDDDK
chain: EPKSSDKTHTCPPCPAPELLGGPSVFLFPPKPKDTLMISRTPEVTCVVVDVSHEDPEVKFNWYVDGVEVHNAKTKPREEQYNSTYRVVSVLTVLHQDWLNGKEYKCKVSNKALPAPIEKTISKAKGQPREPQVCTLPPSRDELTKNQVSLWCLVKGFYPSDIAVEWESNGQPENNYKTTPPVLDSDGSFFLYSKLTVDKSRWQQGNVFSCSVMHEALHNRYTQKSLSLSP
light: DIVMTQSPLSLPVTPGEPASISCRSSQSLVESNRNTYLHWYQQKPGQAPRLLIYKVSNRFSGVPDRFSGSGSGTDFTLKISRVEAEDVGVYYCGQGTQVPYTFGQGTKLEIKRTVAAPSVFIFPPSDEQLKSGTASVVCLLNNFYPREAKVQWKVDNALQSGNSQESVTEQDSKDSTYSLSSTLTLSKADYEKHKVYACEVTHQGLSSPVTKSFNRGEC
ratio of amount bound vs unaltered GLS3000: 0.23

B4: GLS3000 H27dM one-arm antibody (antibody, human IgG1, kappa, L234A L235A, N297A, name in Kabat numbering)
heavy: B1 heavy
chain: B1 chain
light: B1 light with E31M
ratio of amount bound vs unaltered GLS3000: 0.3

B5: GLS3000 H27dR one-arm antibody (antibody, human IgG1, kappa, L234A L235A, N297A, name in Kabat numbering)
heavy: B1 heavy
chain: B1 chain
light: B1 light with E31R
ratio of amount bound vs unaltered GLS3000: 0.31

B6: GLS3000 H27dF one-arm antibody (antibody, human IgG1, kappa, L234A L235A, N297A, name in Kabat numbering)
heavy: B1 heavy
chain: B1 chain
light: B1 light with E31F
ratio of amount bound vs unaltered GLS3000: 0.63

B7: GLS3000 H27dP one-arm antibody (antibody, human IgG1, kappa, L234A L235A, N297A, name in Kabat numbering)
heavy: B1 heavy
chain: B1 chain
light: B1 light with E31P
ratio of amount bound vs unaltered GLS3000: 0.24

B8: GLS3000 H27dL one-arm antibody (antibody, human IgG1, kappa, L234A L235A, N297A, name in Kabat numbering)
heavy: B1 heavy
chain: B1 chain
light: B1 light with E31L
ratio of amount bound vs unaltered GLS3000: 0.3

B10: GLS3000 H27dQ one-arm antibody (antibody, human IgG1, kappa, L234A L235A, N297A, name in Kabat numbering)
heavy: B1 heavy
chain: B1 chain
light: B1 light with E31Q
ratio of amount bound vs unaltered GLS3000: 0.25

B14: GLS3000 H27dY one-arm antibody (antibody, human IgG1, kappa, L234A L235A, N297A, name in Kabat numbering)
heavy: B1 heavy
chain: B1 chain
light: B1 light with E31Y
ratio of amount bound vs unaltered GLS3000: 0.64

B15: GLS3000 H27dI one-arm antibody (antibody, human IgG1, kappa, L234A L235A, N297A, name in Kabat numbering)
heavy: B1 heavy
chain: B1 chain
light: B1 light with E31I
ratio of amount bound vs unaltered GLS3000: 0.26

B16: GLS3000 H27dK one-arm antibody (antibody, human IgG1, kappa, L234A L235A, N297A, name in Kabat numbering)
heavy: B1 heavy
chain: B1 chain
light: B1 light with E31K
ratio of amount bound vs unaltered GLS3000: 0.29

B17: GLS3000 H27dN one-arm antibody (antibody, human IgG1, kappa, L234A L235A, N297A, name in Kabat numbering)
heavy: B1 heavy
chain: B1 chain
light: B1 light with E31N
ratio of amount bound vs unaltered GLS3000: 0.3

B19: GLS3000 H34A one-arm antibody (antibody, human IgG1, kappa, L234A L235A, N297A, name in Kabat numbering)
heavy: B1 heavy
chain: B1 chain
light: B1 light with E31H, H39A
ratio of amount bound vs unaltered GLS3000: 1.06

B22: GLS3000 H27dS one-arm antibody (antibody, human IgG1, kappa, L234A L235A, N297A, name in Kabat numbering)
heavy: B1 heavy
chain: B1 chain
light: B1 light with E31S
ratio of amount bound vs unaltered GLS3000: 0.32

B24: GLS3000 H27dG one-arm antibody (antibody, human IgG1, kappa, L234A L235A, N297A, name in Kabat numbering)
heavy: B1 heavy
chain: B1 chain
light: B1 light with E31G
ratio of amount bound vs unaltered GLS3000: 0.3

B26: GLS3000 H27dW one-arm antibody (antibody, human IgG1, kappa, L234A L235A, N297A, name in Kabat numbering)
heavy: B1 heavy
chain: B1 chain
light: B1 light with E31W
ratio of amount bound vs unaltered GLS3000: 0.39

B27: GLS3000 H34D one-arm antibody (antibody, human IgG1, kappa, L234A L235A, N297A, name in Kabat numbering)
heavy: B1 heavy
chain: B1 chain
light: B1 light with E31H, H39D
ratio of amount bound vs unaltered GLS3000: 0.22

B29: GLS3000 H27dV one-arm antibody (antibody, human IgG1, kappa, L234A L235A, N297A, name in Kabat numbering)
heavy: B1 heavy
chain: B1 chain
light: B1 light with E31V
ratio of amount bound vs unaltered GLS3000: 0.3

B30: GLS3000 H27dT one-arm antibody (antibody, human IgG1, kappa, L234A L235A, N297A, name in Kabat numbering)
heavy: B1 heavy
chain: B1 chain
light: B1 light with E31T
ratio of amount bound vs unaltered GLS3000: 0.29

Further lines, results first:

ratio of amount bound vs unaltered GLS3000: 0.59
B2: GLS3000 H34Y one-arm antibody (antibody, human IgG1, kappa, L234A L235A, N297A, name in Kabat numbering)
heavy: B1 heavy
chain: B1 chain
light: B1 light with E31H, H39Y

ratio of amount bound vs unaltered GLS3000: 0.2
B3: GLS3000 H34R one-arm antibody (antibody, human IgG1, kappa, L234A L235A, N297A, name in Kabat numbering)
heavy: B1 heavy
chain: B1 chain
light: B1 light with E31H, H39R

ratio of amount bound vs unaltered GLS3000: 0.35
B9: GLS3000 H34M one-arm antibody (antibody, human IgG1, kappa, L234A L235A, N297A, name in Kabat numbering)
heavy: B1 heavy
chain: B1 chain
light: B1 light with E31H, H39M

ratio of amount bound vs unaltered GLS3000: 2.17
B11: GLS3000 H34K one-arm antibody (antibody, human IgG1, kappa, L234A L235A, N297A, name in Kabat numbering)
heavy: B1 heavy
chain: B1 chain
light: B1 light with E31H, H39K

ratio of amount bound vs unaltered GLS3000: 0.85
B12: GLS3000 H34V one-arm antibody (antibody, human IgG1, kappa, L234A L235A, N297A, name in Kabat numbering)
heavy: B1 heavy
chain: B1 chain
light: B1 light with E31H, H39V

ratio of amount bound vs unaltered GLS3000: 0.65
B13: GLS3000 H34I one-arm antibody (antibody, human IgG1, kappa, L234A L235A, N297A, name in Kabat numbering)
heavy: B1 heavy
chain: B1 chain
light: B1 light with E31H, H39I

ratio of amount bound vs unaltered GLS3000: 0.27
B18: GLS3000 H34F one-arm antibody (antibody, human IgG1, kappa, L234A L235A, N297A, name in Kabat numbering)
heavy: B1 heavy
chain: B1 chain
light: B1 light with E31H, H39F

ratio of amount bound vs unaltered GLS3000: 0.78
B20: GLS3000 H34S one-arm antibody (antibody, human IgG1, kappa, L234A L235A, N297A, name in Kabat numbering)
heavy: B1 heavy
chain: B1 chain
light: B1 light with E31H, H39S

ratio of amount bound vs unaltered GLS3000: 0.25
B21: GLS3000 H34Q one-arm antibody (antibody, human IgG1, kappa, L234A L235A, N297A, name in Kabat numbering)
heavy: B1 heavy
chain: B1 chain
light: B1 light with E31H, H39Q

ratio of amount bound vs unaltered GLS3000: 0.34
B23: GLS3000 H34P one-arm antibody (antibody, human IgG1, kappa, L234A L235A, N297A, name in Kabat numbering)
heavy: B1 heavy
chain: B1 chain
light: B1 light with E31H, H39P

ratio of amount bound vs unaltered GLS3000: 1.02
B25: GLS3000 H34G one-arm antibody (antibody, human IgG1, kappa, L234A L235A, N297A, name in Kabat numbering)
heavy: B1 heavy
chain: B1 chain
light: B1 light with E31H, H39G

ratio of amount bound vs unaltered GLS3000: 0.23
B28: GLS3000 H34E one-arm antibody (antibody, human IgG1, kappa, L234A L235A, N297A, name in Kabat numbering)
heavy: B1 heavy
chain: B1 chain
light: B1 light with E31H, H39E

ratio of amount bound vs unaltered GLS3000: 0.65
B31: GLS3000 H34N one-arm antibody (antibody, human IgG1, kappa, L234A L235A, N297A, name in Kabat numbering)
heavy: B1 heavy
chain: B1 chain
light: B1 light with E31H, H39N

ratio of amount bound vs unaltered GLS3000: 0.59
B32: GLS3000 H34L one-arm antibody (antibody, human IgG1, kappa, L234A L235A, N297A, name in Kabat numbering)
heavy: B1 heavy
chain: B1 chain
light: B1 light with E31H, H39L

ratio of amount bound vs unaltered GLS3000: 0.89
B33: GLS3000 H34T one-arm antibody (antibody, human IgG1, kappa, L234A L235A, N297A, name in Kabat numbering)
heavy: B1 heavy
chain: B1 chain
light: B1 light with E31H, H39T

ratio of amount bound vs unaltered GLS3000: 0.24
B34: GLS3000 H34W one-arm antibody (antibody, human IgG1, kappa, L234A L235A, N297A, name in Kabat numbering)
heavy: B1 heavy
chain: B1 chain
light: B1 light with E31H, H39W
